Results reported in US20190202925A1 (OPI VI IP HOLDCO, published 2019).
Where two headings read alike, the source gives them in different places.

T1: monomeric human TNFR2 extracellular domain (human, UniProt P20333 23-257)
T1 construct: extracellular domain; Analyte in the Octet experiments; also called human TNFR2 ECD
T1 sequence (looked up): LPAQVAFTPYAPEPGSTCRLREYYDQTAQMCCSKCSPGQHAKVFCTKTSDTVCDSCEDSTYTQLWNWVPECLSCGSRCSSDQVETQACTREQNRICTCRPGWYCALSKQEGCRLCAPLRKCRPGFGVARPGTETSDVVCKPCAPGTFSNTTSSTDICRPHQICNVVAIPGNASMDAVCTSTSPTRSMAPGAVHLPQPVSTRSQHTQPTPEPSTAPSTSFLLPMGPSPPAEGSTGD

T2: monomeric cynomolgus TNFR2 extracellular domain (cynomolgus monkey, UniProt A0A2K5VET2 132-366)
T2 construct: extracellular domain; Analyte in the Octet experiments; also called cynomolgus TNFR2 ECD; Cyno TNFR2
T2 sequence: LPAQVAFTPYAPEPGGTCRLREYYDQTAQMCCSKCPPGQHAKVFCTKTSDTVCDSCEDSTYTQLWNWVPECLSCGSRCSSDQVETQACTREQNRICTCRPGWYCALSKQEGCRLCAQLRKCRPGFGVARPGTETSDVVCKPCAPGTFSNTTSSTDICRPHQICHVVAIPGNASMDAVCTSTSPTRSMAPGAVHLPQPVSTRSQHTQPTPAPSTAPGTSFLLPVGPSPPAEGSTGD

T3: soluble human TNFR2 (human, UniProt P20333 23-257)
T3 construct: also called soluble TNFR2
T3 sequence (looked up): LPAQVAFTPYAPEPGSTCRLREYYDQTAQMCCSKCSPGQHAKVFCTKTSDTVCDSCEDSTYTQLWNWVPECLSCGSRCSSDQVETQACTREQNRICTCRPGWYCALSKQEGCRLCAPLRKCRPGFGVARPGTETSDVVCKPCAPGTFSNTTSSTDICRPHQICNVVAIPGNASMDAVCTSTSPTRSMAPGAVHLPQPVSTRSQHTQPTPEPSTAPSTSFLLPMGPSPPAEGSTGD

T4: soluble cynomolgus TNFR2 (cynomolgus, UniProt A0A2K5VET2 132-366)
T4 sequence: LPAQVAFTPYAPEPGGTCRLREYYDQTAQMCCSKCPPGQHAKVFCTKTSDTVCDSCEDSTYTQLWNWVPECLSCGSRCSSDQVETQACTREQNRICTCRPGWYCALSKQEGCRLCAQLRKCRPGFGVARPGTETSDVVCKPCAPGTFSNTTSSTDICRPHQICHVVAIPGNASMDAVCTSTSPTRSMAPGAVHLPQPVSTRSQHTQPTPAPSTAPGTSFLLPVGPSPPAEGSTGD


Legend:
[1] = biological target: T5, cynomolgus TNFR2 on cells (cynomolgus); test: flow cytometry on cynomolgus PBMC, antibody at 10 ug/mL, anti-human Fc-PE secondary
T5 construct: whole, on cells; also called cynomolgus TNFR2 on CD4+ and CD8+ T cells
Procedure: Cynomolgus peripheral blood mononuclear cells (PBMCs) from two independent donors were isolated by diluting whole blood (SNBL USA) 1:1 in PBS (Lonza), layering over Ficoll-Paque Plus (GE Healthcare), and centrifuging for 35 minutes at 400×g. The PBMC fraction was removed, washed 3 times in 2% FBS PBS and counted. 0.3×10⁶ PBMC were resuspended in Fixable Viability Stain 575V (BD) diluted 1:1000 in PBS and incubated for 10 minutes. PBMC were then washed twice in PBS to remove residual viability stain, resuspended in Horizon Brilliant Stain Buffer (BD) with 10 uL per test of human Fc receptor binding inhibitor (eBioscience), and incubated on ice for 20 minutes to block Fc receptors. […] PBMC were incubated 20 minutes on ice and then washed three times with 2% FBS PBS. To visualize TNFR2 chimeric antibody binding, PBMC were resuspended in goat anti-human Fc-PE F(ab′)₂ secondary reagent (Jackson ImmunoResearch) diluted 1:200 in 2% FBS PBS and incubated on ice for 20 minutes. Cells were then washed three times in 2% FBS PBS and resuspended in 200 uL 2% FBS PBS for flow cytometry analysis using a BD FACS Celesta instrument and FACS Diva software. T cells were analyzed for chimeric TNFR2 binding by gating on viable cells defined as lymphocytes using forward and side scatter and as T cells by anti-CD3 staining. CD4⁺ and CD8⁺ subsets were identified using commercial specific antibody conjugates.

[2] = biological target: T1, monomeric human TNFR2 extracellular …; test: BLI (Octet Red 96), antibody captured on Fc biosensor, monomeric TNFR2 ECD in solution, 1:1 model
[3] = biological target: T2, monomeric cynomolgus TNFR2 …; test: as above
soluble human TNFR2 [4] = biological target: T3, soluble human TNFR2; test: competition ELISA: plate-bound soluble human TNFR2, competitor biotinylated TNFα, streptavidin-HRP, A450
Procedure: (§1) Soluble human TNFR2 (Sino Biological, 10417-H08H) or cynomolgus TNFR2 (Sino Biological, 90102-C08H) was coated on Nunc-Immuno™ plates at 0.1 μg/ml, 0.5 ug/ml, 1 μg/ml, and 5 μg/ml. […] Plates were developed using TMB and stopped with 3 M HCl.

soluble human TNFR2 [5] = biological target: T3, soluble human TNFR2; test: as above; remark: listed apart in the source
Procedure: as §1

soluble cynomolgus TNFR2 [6] = biological target: T4, soluble cynomolgus TNFR2; test: competition ELISA: plate-bound soluble cynomolgus TNFR2, competitor biotinylated TNFα, streptavidin-HRP, A450
Procedure: as §1

soluble cynomolgus TNFR2 [7] = biological target: T4, soluble cynomolgus TNFR2; test: as above; remark: listed apart in the source
Procedure: as §1

soluble human TNFR2 [8] = biological target: T3, soluble human TNFR2; test: competition ELISA: plate-bound soluble human TNFR2, competitor biotinylated TNFα; IC50 relative to unlabelled TNFα = 1.00
Procedure: as §1

soluble human TNFR2 [9] = biological target: T3, soluble human TNFR2; test: as above; remark: listed apart in the source
Procedure: as §1
(§2) IC₅₀ values are reported in nM.

soluble cynomolgus TNFR2 [10] = biological target: T4, soluble cynomolgus TNFR2; test: competition ELISA: plate-bound soluble cynomolgus TNFR2, competitor biotinylated TNFα; IC50 relative to unlabelled TNFα = 1.00
Procedure: as §1

soluble cynomolgus TNFR2 [11] = biological target: T4, soluble cynomolgus TNFR2; test: as above; remark: listed apart in the source
Procedure: as §1, §2

Binder | % CD4^+ ab^+ Donor 1 [1] [%] | % CD4^+ ab^+ Donor 2 [1] [%] | % CD8^+ ab^+ Donor 1 [1] [%] | % CD8^+ ab^+ Donor 2 [1] [%] | Kd [2] [nM] | Kd [3] [nM] | IC50 (soluble human TNFR2 [4]) [nM] | IC50 (soluble human TNFR2 [5]) [nM] | IC50 (soluble cynomolgus TNFR2 [6]) [nM] | IC50 (soluble cynomolgus TNFR2 [7]) [nM] | Relative IC50 (soluble human TNFR2 [8]) [nM] | Relative IC50 (soluble human TNFR2 [9]) [nM] | Relative IC50 (soluble cynomolgus TNFR2 [10]) [nM] | Relative IC50 (soluble cynomolgus TNFR2 [11]) [nM]
chimeric SBT-004 (antibody, V domains shown, VH fused to a human IgG1 Fc domain; also called chSBT-004) VH: EVQLQQSGPEVGRPGSSVKISCKASGYTFTDYIMHWVKQSPGQGLEWIGWVDPEYGSTDYAEKFKKKATLTADTSSNTAYIQLSSLTSEDTATYFCARDDGSYSPFDYWGQGVMVTVSS VL: DIQMTQSPPSLSASLGDKVTITCQASQNINKYIAWYQQKPGKAPRLLIRYTSTLESGTPSRFSGSGSGRDYSFSISNVESEDIASYYCLQYVNLLTFGAGTKLEIK | 10.2 | 7.6 | 11.2 | 18.4 | 3.6 | 3.4 | 16.7 | 19.6 | 16.7 | 31 | 6.72 | 3.54 | 4.45 | 3.22
chimeric SBT-002 (antibody, V domains shown, also called chSBT-002) VH: QVTLKESGPGILQPSQTLSLTCSFSGFSLSTSGMGVGWIRQPSGKGLEWLAHIWWDDDKFYNPSLKSQLTISKDTSRNQVFLKLTSVVTADTATYYCARLTGTRYFDYWGQGTTLTVSS VL: DVQMTQSPSSLSASLGGKVTITCKASQDINKFIAWYQHKPGKGPRLLIHYTSTLQPGIPSKFSGSGSGRDYSFSISNLEPEDIATYYCLQYGNLWTFGGGTKLEIT | 9 | 14.1 | 9.5 | 29 | 0.8 | 0.62 | 7.53 | 16.5 | 15.6 | 27.6 | 3.03 | 2.98 | 4.16 | 2.87
